In paper PMC3338484:

Test system: T1, Nc1nc2c(c(=O)[nH]1)N1CN(c3ccc(C(=O)NC(CCC(=O)O)C(=O)O)cc3)CC1CN2
T1 construct: hexa-histidine tag with TEV protease site (N, cleaved yes); made in house; host or cells: E. coli BL21 (DE3)
Test: FolD enzyme assay (absorbance at 350 nm), IC50 determination
Format: biochemical, Pseudomonas aeruginosa
Conditions: other: 1 nM PaFolD, end-point assay; other substrate saturating; mean ± SD (n = 4); pH 7.9
Experimental: Enzyme activity was assayed by measuring the absorbance at 350 nm of the intermediate product in the reaction, N ^5,N ^10-methenyl-THF, following acidification of the reaction and consequent reconversion of the final product formyl-THF to the intermediate. Following optimization of the assay buffer and determination of the enzyme linearity, assays were carried out at room temperature in a 50 µL reaction volume containing 25 mM bicine, pH 7.9, 1 mM dithiothreitol, 0.05% CHAPS, 0.2 mg mL^−1 BSA, 1 nM recombinant FolD, […] NADP^+ and 35 µM N ^5,N ^10-methylene-THF. Michaelis constants for the two substrates (NADP^+ and N ^5,N ^10-methylene-THF) were determined in an end-point assay, using these buffer and enzyme conditions.
The HTS was performed with a compound collection of 79,029 diverse structures based around 4000 chemical scaffolds. All compounds were dissolved in 100% DMSO to a concentration of 3 mM. Single point inhibition assays were carried out at room temperature in clear, flat bottom, polystyrene, 384-well plates (Matrix). Each assay was performed in a 50 µL reaction volume as described above. […] The FolD assay was run at room temperature for 20 min and the signal was allowed to develop for 10 min before the absorbance of each well was read at 350 nm using an EnVision multilabel plate reader (PerkinElmer Life Sciences). […]

## PaFolD (Pseudomonas aeruginosa PAO1)
  Km: 26 ± 4 µM
